The test system of this data set is guanylyl cyclase. The experiment in a line: Detergent-solubilized membrane (particulate) guanylyl cyclase activity of transfected COS cells. In kind it is biochemical, human. The note with it: for guanylyl cyclase specific activity, fold higher than control cells: COS-2 cells, membrane fraction; for Guanylyl Cyclase Activity: Table 2, transfected COS-7 cells, mean ± standard deviation of triplicate determinations. The method, then:
To examine the biochemical properties of the NPRB receptor, we constructed an expression vector in which the coding sequence was placed under the transcriptional control of the cytomegalovirus immediate-early promoter (Table 2). The vector pRK is disclosed in EP 307,247, published Mar. 15, 1989. The NPRB expression vector was transfected into […] in a transient expression assay and the detergent solubilized guanylyl cyclase activity of a membrane fraction was measured (Table 2). Cells transfected with the NPRB expression vector has about eleven-fold higher guanylyl cyclase specific activity that control cells, while cells transfected with an NPRA receptor expression vector^5 using pRK has a six-fold higher guanylyl cyclase specific activity. Specific binding of [^125 l]-human ANP (ANP) and [^125 l]-porcine BNP (pBNP) to transfected cells was determined in the presence of absence of unlabeled peptides.
COS-7 cells maintained in Dulbecco's modified Eagles' medium (DMEM) supplemented with 10% fetal calf serum were seeded at 5×10^6 cells per 100 mm plate (GC assay) or 1×10^5 per 35 mm plate (binding assay). Twelve house later, cells were transfected with control vector^5 (1 mg/ml) using DEAE-dextran. The vector pRK-NPRBR contained nucleotides 253 to 3470 (FIG. 1) of the NPRB receptor in the expression vector pRK5 under the control of the cytomegalovirus immediate early promoter.
Guanylate cyclase activity was determined forty-eight hours after transfection, the cells were washed with phosphate buffer saline (PBS), scraped into 4 ml PBS and homogenized with 40 strokes of a Dounce homogenizer at 0° C. Nuclei were pelleted and the supernatant was centrifuged at 100,000 xg for 30 minutes in SW 55- Ti rotor to obtain a membrane pellet. Membrane proteins were solubilized by incubation or ice for 10 minutes in solution containing 20 mM Hepes, pH 7.4, 200 mM NaCl, 10% glycerol, 1% Triton X-100 and 1 mM dithiothreitol. Protein concentrations were measured by a dye binding assay (BioRad). Gyanylate cyclase reactions contained […] of membrane proteins in […] of 20 mM Hepes pH 7.4, 30 units of creatine phosphokinase, 1 mM GTP, 4 mM MnCl2 and 0.5 mM isobutyl methylxanthine (IBMX). After incubation at 37° C. for 10 minutes the reaction was stopped by addition of […] of 50 mM acetic acid (pH 6.2) and boiled for 3 min. Aliquots were analyzed for cGMP after acetylation with 1/20 volume of acetic anhydride/triethylamine (1:2) then radioimmuno-assay (Biomedical Technologies, Inc.). Results are expressed in Table 2 as the mean±standard deviation of triplicate determinations.

In the case of “NPRA: 120-140 kd NPRA receptor, a membrane form of guanylyl cyclase”, the “guanylyl cyclase specific activity, fold higher than control cells” value was “six” and the “Guanylyl Cyclase Activity” value turned out to be 1.91 ± 0.01 pmole cGMP/min/mg protein.

B1: NPRB: human natriuretic peptide receptor B having the sequence of FIG. 1, expressed from pRK vector (protein, UniProt P20594 23-1047, looked up)
Atrial natriuretic peptide …: RNLTLAVVLPEHNLSYAWAWPRVGPAVALAVEALGRALPVDLRFVSSELEGACSEYLAPLSAVDLKLYHDPDLLLGPGCVYPAASVARFASHWRLPLLTAGAVASGFSAKNDHYRTLVRTGPSAPKLGEFVVTLHGHFNWTARAALLYLDARTDDRPHYFTIEGVFEALQGSNLSVQHQVYAREPGGPEQATHFIRANGRIVYICGPLEMLHEILLQAQRENLTNGDYVFFYLDVFGESLRAGPTRATGRPWQDNRTREQAQALREAFQTVLVITYREPPNPEYQEFQNRLLIRAREDFGVELGPSLMNLIAGCFYDGILLYAEVLNETIQEGGTREDGLRIVEKMQGRRYHGVTGLVVMDKNNDRETDFVLWAMGDLDSGDFQPAAHYSGAEKQIWWTGRPIPWVKGAPPSDNPPCAFDLDDPSCDKTPLSTLAIVALGTGITFIMFGVSSFLIFRKLMLEKELASMLWRIRWEELQFGNSERYHKGAGSRLTLSLRGSSYGSLMTAHGKYQIFANTGHFKGNVVAIKHVNKKRIELTRQVLFELKHMRDVQFNHLTRFIGACIDPPNICIVTEYCPRGSLQDILENDSINLDWMFRYSLINDLVKGMAFLHNSIISSHGSLKSSNCVVDSRFVLKITDYGLASFRSTAEPDDSHALYAKKLWTAPELLSGNPLPTTGMQKADVYSFGIILQEIALRSGPFYLEGLDLSPKEIVQKVRNGQRPYFRPSIDRTQLNEELVLLMERCWAQDPAERPDFGQIKGFIRRFNKEGGTSILDNLLLRMEQYANNLEKLVEERTQAYLEEKRKAEALLYQILPHSVAEQLKRGETVQAEAFDSVTIYFSDIVGFTALSAESTPMQVVTLLNDLYTCFDAIIDNFDVYKVETIGDAYMVVSGLPGRNGQRHAPEIARMALALLDAVSSFRIRHRPHDQLRLRIGVHTGPVCAGVVGLKMPRYCLFGDTVNTASRMESNGQALKIHVSSTTKDALDELGCFQLELRGDVEMKGKGKMRTYWLLGERKGPPGLL
As for B1, the “guanylyl cyclase specific activity, fold higher than control cells” value is “about eleven” and the “Guanylyl Cyclase Activity” value came out at 3.50 ± 0.01 pmole cGMP/min/mg protein.

The record behind these values is patent US5352587A, “Compositions and methods for the synthesis of natriuretic protein receptor B and methods of use” (Genentech, Inc., priority 1991, dated 1994).
